The source of these data is the RNAGym collection of RNA variant scans (doi:10.1073/pnas.2313332121).

B1: TPR t1 (parent)
chain: GACCAAUCUGCCCUCAGAGCUCGAGAACAUCUUCGGAUGCAGAGGAGGCAGGCUUCGGUGGCGCGAUAGCGCCAACGUCCUCAACCUCCAAUGCAUCCCACCACAUGAUGAUGCCUGAAGAGCCUUGGUUUUUUG

The variants in this data set derive from B1. The data set can be described thus: polymerase ribozyme fitness, log enrichment relative to wild type (log ratio); higher = more active; in vitro selection for triplet polymerase activity. In a few lines: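 Only genotypes with ≥10 input reads and ≥1 read per output were kept after Illumina sequencing of input and output libraries. These libraries were PCR-built, transcribed mutants of each subunit of a heterodimeric triplet polymerase ribozyme, each put through one triplicate in vitro selection round with frozen incubation at −7 °C, gel excision of extended constructs, streptavidin-bead capture and RT-PCR. Fitness is a logarithmic ratio of genotype enrichment to wild-type enrichment, from inverse-variance-weighted replicate averages, with the logarithm in base 2.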
On to GACCAAUCUGCUGUCAGAGCUCGAGAACAUCUUCGGUUGCAGAGGAGGCAGGCGUCGGUGGCGCGAUAGCGCCAACGUCAUCAACCUCCAAUGCAUCCCACCACAUGAUGAUGCCUGAAGAGCCUUGGUUUUUUG [C12U C13G A37U U54G C80A], for which the “polymerase ribozyme fitness (log ratio)” value is -4.65.
As for GACCAAUCUGCUCUCAGAGGUCGAGAACAUCUUCGGAUGCAGAGGAGGCAGGCUUCGGUGGCGCGAUAGCGCCAACGUCCUCCACCUCCAAUGCAUCUCACCACAUGAUGAUGCCUGAAGUGCCUUGGUUUUUUG [C12U C20G A83C C98U A121U], the “polymerase ribozyme fitness (log ratio)” value was -4.1.
Consider GACCAAUCUGCUCUAAGAGCUCGAGAACAUCUUCGGCUGCAGAGGAGGCAGUCUUCGGUGGCGCGAUAGCGUCAACGUCCUCAACCUCCAAUGCAUCCCACCACAUGAUGAUGCCGGAAGAGCCUUGGUUUUUUG [C12U C15A A37C G52U C72U U116G], for which the “polymerase ribozyme fitness (log ratio)” value was -3.77.
For the variant GACCAAUCUGCUCUCAGAGGUCGAGAACAUCUUCGGAUGCAGAGGAGGCAGGCUUCGGUGGCGCGAUAGCGCCAACGUCCUCAACCUCCAAUGCAUCCCACCACACGAUGAUGCCUGAAGAGCCUUGGUUUUUUG [C12U C20G U106C], the “polymerase ribozyme fitness (log ratio)” value is -3.81.
For GACCAAUCUGCUCUCAGAGCUCGAGAACAUCUUCGGAUGCAGAGGAGGCAGGCUUCGGUGGCGCGUUAGCGCCAACGUCCUCAACCUCCAAUGCAUCCCACCACAUGAUGAUGCCUGAAGAGACUUGGUUUUUUG [C12U A66U C123A] the value was 0.936.
GACCAAUCUGCUCUUAGAGCUCGAGAACAUCUUCGGAUGCAGAGGAGGCAGGCUUCGGUGGCGCGAUAGCGCCAACGUCCUCAACCUCCGAUGCAUCCCCCCACAUGAUGAUGCCUGAAGAGCCUUGGUUUUUUG [C12U C15U A90G A100C]: the “polymerase ribozyme fitness (log ratio)” value is -1.2.
GACCAAUCUGCUCUUAGAGCUCGAGAACAUCUUCGGAUGCAGAGGAGGAAGGCUUCGGUGGCGCGAUAGCGCGAACGUCCUCAACCUCCAAUGCAUCCCAUCACAUGAUGAUGCCUGAAGAGCCUUGGUUUUGUG [C12U C15U C49A C73G C101U U133G]: the “polymerase ribozyme fitness (log ratio)” value is -1.62.
In the case of GACCAAUCUGCUCUCAGAGCUCGAGAACAUCUUCGGAUGCAGAGGAGGCAGGCUUCGGUGGCGCGAUAGCGCCAACGUCCUCAACCUCCAAUGCAUCCCACCACAUGAUGAUGCCUGAAGUGCCUUGGUUUUUUG [C12U A121U] it was 2.4; in that of GACCAAUCUGCUCUCAGAGCUCGAGAACAUCUUCGGAUGCAGAGGAGGCAGGCUUCGGUGGCGCGAUAGCGCCAACGUCCUCAACCUCCAAUGCAUCCCACCACAUGAUGAUGCCUGAAGGGCCUUGGUUUUUUG [C12U A121G], 1.82; in that of GACCAAUCUGCUCUCAGAGUUCGAGAACAUCUUCGGAUGCAGUGGAGGCAGGCUUCGGUGGUGCGAUAGCGCCAACGUCCUCAACCUCCAAUGCACCCCACCACAAGAUGAUGCCUGAAGAGCCUUGGAUUUUUG [C12U C20U A43U C62U U96C U106A U129A], -6.14.
In the case of GACCAAUCUGCUCUCAGAGCUCGAGAACAUCUUCGGAUGCAGAGGAGGCAGGCUUCGGUGGCGCGAUAGCGCCAUCGUCCUCAACCUCCAAUGCAUCCCACCACAUGAUGAUGCCUGAAGAGCCUUGGUUUUUUG [C12U A75U] it was 0.0801; in that of GACCAAUCUGCUUUCAGAGCUCGAGAACAUCUUCGGAUGCAGAGGAGGCAGGCUUCGGUGGCGCGAUAGCGCCAAAGUCCUCAACCUCCAAUGCAUCCCACCACAUGAUGAUGGCUGAAGAGCCUUGGUUUUUUG [C12U C13U C76A C114G], -3.72.
As for GACCAAUCUGCUCUCAGAGAUCGAGAACAUCUUCGGAUGCAGAGGAGGCAGGCUUCGGUGGCGCGAUAGCACCAACGUCCUCAACCCCCAAUGCAUCCCACCACAUGAUGAUGCCUGAAGAGCCUUGGUUUUUUG [C12U C20A G71A U87C], the “polymerase ribozyme fitness (log ratio)” value is -2.91.
In the case of GACCAAUCUGCUCUCAGAGCUCGAGAACAUCUUCGGAUGCAGAGGAGGCAGGCUUCGGUGGCGCGAUAGCGCCAACGUCCUCACCCUCCAAUGCAUCCCACCACAUGAUGAUGCCUGAAGAGCCUUGGUUUUUUG [C12U A84C] it was 0.463; in that of GACCAAUCUGCUCUCAGAGCUCGAGAACAUCUUCGGAUGCAGAGGAGGCAGGCUUCGGUGGCGCGAUAGCGCCCACGUUCUCAACCUCCAAUGCAUCCCACCACAUGAUGAUGCCUGAAGUGCCUUGGUUUUUUG [C12U A74C C79U A121U], 1.34; in that of GACCAAUCUGCUCUUAAAGCUCGAGAACAUCUUCGGAUGCAGAGGAGGCAGGCUUCGGUGGCGCGAUAGCGCCAACGUCCUCCAACUCCAAUGCAUCCCACCACAUGAUGAUGCCUUAAGAGCCUUGGUUUUUUG [C12U C15U G17A A83C C85A G117U], -2.34.
As to GACCAAUCUGCUCUCAGAGCUCGAGAACAUCUUCGGAUGCAGAGGAGGCAGGCUUCGGUGGCGCGAUAGCGCCAACGUCCUCACCCUCCAAUGCAUCCCACCACAUGAUGAUGCCUGAAUAGCCUUGGUUUUUUG [C12U A84C G120U], the “polymerase ribozyme fitness (log ratio)” value worked out at 1.69.
Regarding GACCAAUCUGCUCUUAGAGCUCGAGAACAUCUUCGGAUGCAGAGGAGGCAGGCUUCGGUGGCGCGAUAGCGACAACGUCCUCAACCUCCAAUGCAUCCCACCACAUGAUGAUGCCUGAAGUGCCUUGGUUUUUUG [C12U C15U C72A A121U], the “polymerase ribozyme fitness (log ratio)” value was determined as 1.3.
On to GACCAAUCUGCUGUCAGAGCUCGAGAACAUCUUCGGUUGCAGAGGAGGCAGGCGUCGGUGGCGCGAUAGCGCUAACGUCCUCAACCUCCAAUGCAUCCCACCACAUGAUGAUGCCUGAAGAGUCUUGGUUUUUUG [C12U C13G A37U U54G C73U C123U], for which the “polymerase ribozyme fitness (log ratio)” value was 1.09.
For the variant GACCAAUCUGCUUUCAGAGCUCGAGAACAUCUUCGGAUGCAGAGGAGGCAGGCUUCGGUGGCGCGAUAGCGCCUACGUCCUCAACCUCCAAUGCAUACCACCACAUGAUGAUGCCUGAAGAGUAUUGGUUUUUUG [C12U C13U A74U C97A C123U C124A], the “polymerase ribozyme fitness (log ratio)” value is -4.56.
Turning to GACCAAUCUGCUCUCAGAGUUCGAGAACAUCUUCGGAUGCAGAGGUGGCAGGCCUAGGUGGCGCGAUAGCGCCAACGUCCUCAACCGCCAUUGCAUCCCACCACAUGAUGAUGCCUGAAGAGCCUUGGUUUUUUG [C12U C20U A46U U54C C56A U87G A91U], the “polymerase ribozyme fitness (log ratio)” value was -3.03.
